Laboratory results published in patent publication US20110263824A1.

Key:
human serum protein [1] = assay: summary of Example 1-9: adsorption to human serum protein-immobilized magnetic beads
human serum protein [2] = assay: adsorption to human serum protein-immobilized magnetic beads, western blot quantification
human serum protein [3] = assay: adsorption of TM2 variant to human serum protein-immobilized magnetic beads, western blot quantification
human serum protein [4] = assay: human serum (1:800) adsorbed to TM2 variant-immobilized magnetic beads, HRP-labeled anti-human IgG detection
human serum protein [5] = assay: human serum (1:800) adsorbed to TM2-immobilized magnetic beads, HRP-labeled anti-human IgG detection
human serum protein [6] = assay: adsorption of TM2 to human serum protein-immobilized magnetic beads, western blot quantification (reference)

non-specific binding and adsorption relative to wild type TM2 (% of wild type TM2) (human serum protein [1])	decrease of adsorption to human serum protein compared to the wild type TM2 (human serum protein [2])	Non-specific binding of serum protein (%) (% of wild type TM2) (human serum protein [3])	Non-specific binding to serum protein (A450) (human serum protein [4])	Non-specific binding to serum protein (A450) (human serum protein [5])	Non-specific binding of serum protein (%) (% of wild type TM2) (human serum protein [6])	Binder
60	30%	68				TM2 K26A (protein) MSDVQSSLTGTWYNELNSKMELTANADGTLTGKYLSKVGDVYVPYPLSGRYNLQPPAGQGVALGWAVSWENSKIHSATTWSGQFFSESSPVILTQWLLSSSTARGDVWESTLVGNDSFTKTAPTEQQIAHAQLHCRAPRLK
20	70%	25				TM2 R104EK141E (protein) MSDVQSSLTGTWYNELNSKMELTANKDGTLTGKYLSKVGDVYVPYPLSGRYNLQPPAGQGVALGWAVSWENSKIHSATTWSGQFFSESSPVILTQWLLSSSTAEGDVWESTLVGNDSFTKTAPTEQQIAHAQLHCRAPRLE
			0.45 A450			TM2 D40NR104EK141E (protein) MSDVQSSLTGTWYNELNSKMELTANKDGTLTGKYLSKVGNVYVPYPLSGRYNLQPPAGQGVALGWAVSWENSKIHSATTWSGQFFSESSPVILTQWLLSSSTAEGDVWESTLVGNDSFTKTAPTEQQIAHAQLHCRAPRLE
				0.67 A450	100	tamavidin 2 (wild type) (protein) MSDVQSSLTGTWYNELNSKMELTANKDGTLTGKYLSKVGDVYVPYPLSGRYNLQPPAGQGVALGWAVSWENSKIHSATTWSGQFFSESSPVILTQWLLSSSTARGDVWESTLVGNDSFTKTAPTEQQIAHAQLHCRAPRLK
	10%	90				TM2 R104E (protein) MSDVQSSLTGTWYNELNSKMELTANKDGTLTGKYLSKVGDVYVPYPLSGRYNLQPPAGQGVALGWAVSWENSKIHSATTWSGQFFSESSPVILTQWLLSSSTAEGDVWESTLVGNDSFTKTAPTEQQIAHAQLHCRAPRLK
60	40%	58				TM2 K141E (protein) MSDVQSSLTGTWYNELNSKMELTANKDGTLTGKYLSKVGDVYVPYPLSGRYNLQPPAGQGVALGWAVSWENSKIHSATTWSGQFFSESSPVILTQWLLSSSTARGDVWESTLVGNDSFTKTAPTEQQIAHAQLHCRAPRLE
60	40%	55				TM2 K73Q (protein) MSDVQSSLTGTWYNELNSKMELTANKDGTLTGKYLSKVGDVYVPYPLSGRYNLQPPAGQGVALGWAVSWENSQIHSATTWSGQFFSESSPVILTQWLLSSSTARGDVWESTLVGNDSFTKTAPTEQQIAHAQLHCRAPRLK
